Test [1] concerns the target 43S·mRNA preinitiation complex assembled with eIF5-G31R,G62S (yeast) (UniProt P32911). The test is described as follows: fluorescence polarisation; dissociation kinetics by fluorescence anisotropy, 43S·mRNA(AUG) complexes: 15 nM eIF1A-Fl, 1 μM eIF1, 1 μM eIF5 variant, 120 nM 40S, 10 μM mRNA(AUG), 300 nM eIF2, 150 nM Met-tRNAi, 1 mM GDPNP·Mg2+; chase with 15 μM unlabeled eIF1A; 30 mM HEPES pH 7.4, 100 mM potassium acetate, 3 mM Mg(OAc)2, 2 mM DTT; double exponential fit (k1 fast phase, open state; k2 slow phase, closed state). In general terms: Polarisation of emitted light reports the rotation of a fluorescent probe.

In test [2] the target is 43S·mRNA preinitiation complex assembled with WT eIF5 (40S subunits, eIF1, eIF5, eIF2·GDPNP·Met-tRNAi ternary complex, model mRNA) (yeast) (UniProt P32911). The description is as above.
Test [3] has as its target 43S·mRNA preinitiation complex assembled with eIF5-G31R,M18V (yeast) (UniProt P32911). The test is described as above.
Test [4] has as its target 43S·mRNA preinitiation complex assembled with eIF5-M18V (yeast) (UniProt P32911). The description is as above.
The target of test [5] is 43S·mRNA preinitiation complex assembled with eIF5-G62S (yeast) (UniProt P32911). The test is described as above.
For test [6], the target named is 43S·mRNA preinitiation complex assembled with eIF5-G31R (yeast) (UniProt P32911). The description is as above.
Test [7] has as its target 43S·mRNA preinitiation complex assembled with eIF5-G31R,G62S (yeast) (UniProt P32911). The experiment in a line: fluorescence polarisation; dissociation kinetics by fluorescence anisotropy, 43S·mRNA(UUG) complexes: 15 nM eIF1A-Fl, 1 μM eIF1, 1 μM eIF5 variant, 120 nM 40S, 10 μM mRNA(UUG), 300 nM eIF2, 150 nM Met-tRNAi, 1 mM GDPNP·Mg2+; chase with 15 μM unlabeled eIF1A; 30 mM HEPES pH 7.4, 100 mM potassium acetate, 3 mM Mg(OAc)2, 2 mM DTT; double exponential fit (k1 fast phase, open state; k2 slow phase, closed state).

In test [8] the target is 43S·mRNA preinitiation complex assembled with WT eIF5 (40S subunits, eIF1, eIF5, eIF2·GDPNP·Met-tRNAi ternary complex, model mRNA) (yeast) (UniProt P32911). Described as above.
Test [9] has as its target 43S·mRNA preinitiation complex assembled with eIF5-G31R,M18V (yeast) (UniProt P32911). The test is described as above.
Test [10] addresses 43S·mRNA preinitiation complex assembled with eIF5-M18V (yeast) (UniProt P32911). Described as above.
Test [11] addresses 43S·mRNA preinitiation complex assembled with eIF5-G62S (yeast) (UniProt P32911). The test is described as above.
In test [12] the target is 43S·mRNA preinitiation complex assembled with eIF5-G31R (yeast) (UniProt P32911). The test is described as above.

Turning to “eIF1A labeled at its C-terminus with fluorescein (from UniProt P38912 1-153) (natural protein)”, the k1 (dissociation rate constant, fast phase, open state) was 0.018 s⁻¹ in [1]; 0.007 s⁻¹ in test [2]; 0.025 s⁻¹ in test [3]; 0.003 s⁻¹ in test [4]; 0.018 s⁻¹ in [5]; 0.016 s⁻¹ in test [6]. Also, the k1 (dissociation rate constant, fast phase, open state) in [7] turned out to be 0.026 s⁻¹; in test [8], 0.011 s⁻¹; in test [9] it was 0.018 s⁻¹; in test [10], 0.011 s⁻¹; in test [11], 0.025 s⁻¹; in [12], 0.008 s⁻¹. Besides, the k2 (dissociation rate constant, slow phase, closed state) in test [1] came out at 0.003 s⁻¹; in test [2], 0.0004 s⁻¹; in [3], 0.002 s⁻¹; in test [4], 0.0003 s⁻¹; in test [5], 0.003 s⁻¹; in test [6] it was 0.005 s⁻¹. The k2 (dissociation rate constant, slow phase, closed state) stood at 0.004 s⁻¹ in test [7]; 0.0011 s⁻¹ in [8]; 0.0003 s⁻¹ in [9]; 0.0012 s⁻¹ in [10]; 0.002 s⁻¹ in test [11]; 0.0005 s⁻¹ in [12].
